According to US20220048947A1 (NANOTAG BIOTECHNOLOGIES, published 2022):
Substitutions are numbered along the chain they refer to. Where no end group is shown, it is not given here.

T1: ALFA^ST peptide (Ac-PSRLEEELRRRLTEP-Amide)
T1 construct: also called free ALFA^ST peptide; ALFA peptide
T1 peptide: Ac-PSRLEEELRRRLTEP-NH2

T2: PpiD (E. coli, UniProt P0ADY1 1-623)
T2 sequence (looked up): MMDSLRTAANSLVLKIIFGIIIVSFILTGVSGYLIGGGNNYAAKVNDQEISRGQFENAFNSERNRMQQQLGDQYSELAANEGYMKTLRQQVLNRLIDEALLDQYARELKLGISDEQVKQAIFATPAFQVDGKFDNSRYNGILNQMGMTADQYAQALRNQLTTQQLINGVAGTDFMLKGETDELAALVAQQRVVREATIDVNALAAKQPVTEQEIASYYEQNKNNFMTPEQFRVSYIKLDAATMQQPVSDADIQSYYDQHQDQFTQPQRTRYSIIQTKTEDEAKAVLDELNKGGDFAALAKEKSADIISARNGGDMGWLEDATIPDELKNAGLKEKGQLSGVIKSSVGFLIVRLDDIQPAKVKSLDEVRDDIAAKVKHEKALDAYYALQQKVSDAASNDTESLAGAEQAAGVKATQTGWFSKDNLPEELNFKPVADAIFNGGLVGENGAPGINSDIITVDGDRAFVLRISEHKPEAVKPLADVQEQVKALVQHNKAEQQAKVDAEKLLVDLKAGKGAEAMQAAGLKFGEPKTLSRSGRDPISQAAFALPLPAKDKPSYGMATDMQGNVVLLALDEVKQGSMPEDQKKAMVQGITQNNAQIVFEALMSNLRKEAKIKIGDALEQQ

T3: YfgM (non-tagged) (E. coli, UniProt P76576 1-206)
T3 construct: Control without tag; also called wild-type YfgM; untagged YfgM
T3 sequence: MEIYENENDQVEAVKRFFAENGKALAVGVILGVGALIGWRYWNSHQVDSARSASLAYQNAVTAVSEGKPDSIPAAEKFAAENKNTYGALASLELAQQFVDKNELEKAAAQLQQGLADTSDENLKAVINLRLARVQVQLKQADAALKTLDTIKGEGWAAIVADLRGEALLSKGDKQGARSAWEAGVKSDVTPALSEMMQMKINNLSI

B1: pSRLEEELRRRLTE (SEQ ID NO: 7) (peptide)
peptide: PSRLEEELRRRLTE
notes: Tag tested inside a fusion protein, position C; also called ALFA^ST tag (C-terminal)
B2: NbALFA^ST (NbALFA clone 1G5) (VHH)
VHH: EVQLQESGGGLVQPGGSLRLSCTASGVTISALNAMAMGWYRQAPGERRVMVAAVSERGNAMYRESVQGRFTVTRDFTNKMVSLQMDNLKPEDTAVYYCHVLEDRVDSFHDYWGQGTQVTVSS
notes: Alpaca single-domain antibody; also called ALFA Selector^ST (immobilised on agarose resin); FluoTag-X2 anti-ALFA (coupled to AbberiorStar635P or IRDye800CW)
B3: NbALFA^ST-mScarlet-I (VHH)
VHH: B2 VHH
notes: Intrabody fusion expressed in COS-7 cells; also called pNT1004
B4: NbALFA^PE (VHH)
VHH: B2 VHH with R47E, E56S
notes: Weaker mutant of NbALFA^ST made by rational mutagenesis from the crystal structure; used on agarose (ALFA Selector^PE) or in solution (MST); also called NbALFA^PE mutant; ALFA Selector^PE (immobilised on agarose resin)
B5: pgSRLEEELRRRLTAp (SEQ ID NO: 09) (peptide)
peptide: PGSRLEEELRRRLTAP
notes: Tag variant tested inside a fusion protein, position M
B6: gPSRLEEELRRRLT. (SEQ ID NO: 18) (peptide)
peptide: GPSRLEEELRRRLT
notes: Tag variant tested inside a fusion protein, position C
B7: MSRLEEELRRRLTEp (SEQ ID NO: 29) (peptide)
peptide: MSRLEEELRRRLTEP
notes: Tag variant tested inside a fusion protein, position N
B8: pSRLEEELRRRLTEp (SEQ ID NO: 6) (peptide)
peptide: PSRLEEELRRRLTEP
modifications: not fully specified (residues 1, 15); printed as pSRLEEELRRRLTEp
notes: Tag tested inside a fusion protein, position M; also called ALFA^ST tag (internal)
B9: gPSRLEEELRRRLTA. (SEQ ID NO: 19) (peptide)
peptide: GPSRLEEELRRRLTA
notes: as for B6
B10: grSRLEEELRRRLTA. (SEQ ID NO: 08) (peptide)
peptide: GRSRLEEELRRRLTA
notes: as for B6
B11: gpSRLEEELRRRLTE. (SEQ ID NO: 28) (peptide)
peptide: GPSRLEEELRRRLTE
notes: as for B6
B12: MsSRLEEELRRRLTEp (SEQ ID NO: 30) (peptide)
peptide: MSSRLEEELRRRLTEP
modifications: not fully specified (residues 2, 16); printed as MsSRLEEELRRRLTEp
notes: as for B7
B13: spSRLEEELRRRLTEp (SEQ ID NO: 15) (peptide)
peptide: SPSRLEEELRRRLTEP
notes: as for B5
B14: spSRLEEELRRRLTDp (SEQ ID NO: 14) (peptide)
peptide: SPSRLEEELRRRLTDP
notes: as for B5
B15: spSGLEQELRRRLTEp (SEQ ID NO: 25) (peptide)
peptide: SPSGLEQELRRRLTEP
notes: as for B5
B16: gpSRLEEELRRRLTAp. (SEQ ID NO: 26) (peptide)
peptide: GPSRLEEELRRRLTAP
notes: as for B6
B17: gPSRLEEELRRRLTAa. (SEQ ID NO: 20) (peptide)
peptide: GPSRLEEELRRRLTAA
notes: as for B6
B18: spSRLEEELRRRLTAp (SEQ ID NO: 11) (peptide)
peptide: SPSRLEEELRRRLTAP
notes: as for B5
B19: spSGLEQELRRRLDAp (SEQ ID NO: 23) (peptide)
peptide: SPSGLEQELRRRLDAP
notes: as for B5
B20: spSRLEEELRRRLEAp (SEQ ID NO: 13) (peptide)
peptide: SPSRLEEELRRRLEAP
notes: as for B5
B21: spSRLEEELRRRLDAp (SEQ ID NO: 12) (peptide)
peptide: SPSRLEEELRRRLDAP
modifications: not fully specified (residues 1, 2, 16); printed as spSRLEEELRRRLDAp
notes: as for B5
B22: gpSRLEEELRRRLTEp. (SEQ ID NO: 27) (peptide)
peptide: GPSRLEEELRRRLTEP
notes: as for B6
B23: spSGLEEELRRRLTEp (SEQ ID NO: 17) (peptide)
peptide: SPSGLEEELRRRLTEP
notes: as for B5
B24: spSGLEQELRRRLTAp (SEQ ID NO: 22) (peptide)
peptide: SPSGLEQELRRRLTAP
notes: as for B5
B25: spSGLEQELRRRLEAp (SEQ ID NO: 24) (peptide)
peptide: SPSGLEQELRRRLEAP
notes: as for B5
B26: spSRLEEELRRRLTAdp (SEQ ID NO: 16) (peptide)
peptide: SPSRLEEELRRRLTADP
notes: as for B5
B27: psTRLEEELRRRLTAp (SEQ ID NO: 10) (peptide)
peptide: PSTRLEEELRRRLTAP
notes: as for B5
B28: gPSRLEEELRRRLTAas. (SEQ ID NO: 21) (peptide)
peptide: GPSRLEEELRRRLTAAS
notes: as for B6
B29: MSGLEQELRRRLTPs (SEQ ID NO: 110) (peptide)
peptide: MSGLEQELRRRLTPS
modifications: not fully specified (residue 15); printed as MSGLEQELRRRLTPs
notes: as for B7

How the values were obtained:
[1] = molecular target: B2; test: peptide elution from NbALFA^ST resin; tag position C
ALFA^PE-FLAG-Vimentin = molecular target: T4, ALFA^PE-FLAG-Vimentin (Mus musculus (Mouse), UniProt P20152 2-466); test: direct immunofluorescence on PFA-fixed COS-7 cells
T4 construct: Expressed in COS-7 cells; also called ALFA^PE-Vimentin; ALFA^PE-tagged Vimentin
T4 sequence (P20152 other isoform, or with tags, fused parts or gaps): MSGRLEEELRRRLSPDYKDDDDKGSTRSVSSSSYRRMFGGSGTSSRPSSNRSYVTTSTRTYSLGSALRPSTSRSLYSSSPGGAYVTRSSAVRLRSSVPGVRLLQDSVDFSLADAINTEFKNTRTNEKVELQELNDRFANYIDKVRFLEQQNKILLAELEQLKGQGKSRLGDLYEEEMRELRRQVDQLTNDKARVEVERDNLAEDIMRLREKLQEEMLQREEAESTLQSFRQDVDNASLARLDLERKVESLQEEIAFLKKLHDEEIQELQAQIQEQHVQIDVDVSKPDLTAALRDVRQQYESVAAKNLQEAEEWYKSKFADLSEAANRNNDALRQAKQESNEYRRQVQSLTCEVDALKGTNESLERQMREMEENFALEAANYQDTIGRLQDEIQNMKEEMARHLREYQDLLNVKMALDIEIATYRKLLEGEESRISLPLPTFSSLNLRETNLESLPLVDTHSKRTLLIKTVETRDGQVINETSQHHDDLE

ALFA^ST-FLAG-Vimentin [2] = molecular target: T5, ALFA^ST-FLAG-Vimentin (Mus musculus (Mouse), UniProt P20152 2-466); test: direct immunofluorescence on PFA-fixed COS-7 cells
T5 construct: Expressed in COS-7 cells; also called ALFA^ST-Vimentin; ALFA^ST-tagged Vimentin
T5 sequence (P20152 other isoform, or with tags, fused parts or gaps): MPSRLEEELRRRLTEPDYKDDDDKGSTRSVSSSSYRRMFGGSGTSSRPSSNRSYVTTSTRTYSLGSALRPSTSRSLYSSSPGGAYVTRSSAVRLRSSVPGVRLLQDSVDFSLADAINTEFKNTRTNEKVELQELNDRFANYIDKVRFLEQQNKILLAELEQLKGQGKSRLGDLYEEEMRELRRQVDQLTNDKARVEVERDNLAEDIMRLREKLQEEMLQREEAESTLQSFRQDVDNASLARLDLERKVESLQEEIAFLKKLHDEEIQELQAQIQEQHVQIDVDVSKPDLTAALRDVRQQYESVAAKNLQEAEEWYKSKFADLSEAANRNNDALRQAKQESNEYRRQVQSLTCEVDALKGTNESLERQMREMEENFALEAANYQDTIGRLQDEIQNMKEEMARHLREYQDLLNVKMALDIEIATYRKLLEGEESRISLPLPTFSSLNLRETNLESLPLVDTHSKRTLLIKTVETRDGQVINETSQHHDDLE

[3] = molecular target: T1, ALFA^ST peptide …; test: X-ray structure of the complex
[4] = molecular target: maltose-binding protein (MBP) fused to multiple epitope tags (FLAG, HA, myc and ALFA^ST); test: dot blot, 2.7 nM nanobody or primary antibody
PpiD [5] = molecular target: T2, PpiD; test: pull-down on ALFA Selector^ST from DDM lysate, Western blot
YfgM (non-tagged) [6] = molecular target: T3, YfgM (non-tagged); test: as above
ALFA^ST-FLAG-Vimentin [7] = molecular target: T5, ALFA^ST-FLAG-Vimentin; test: intrabody co-expression in COS-7 cells, fluorescence microscopy
PpiD [8] = molecular target: T2, PpiD; test: pull-down on ALFA Selector^PE from DDM lysate, Western blot
YfgM (non-tagged) [9] = molecular target: T3, YfgM (non-tagged); test: as above
[10] = molecular target: B2; test: peptide elution from NbALFA^ST resin; tag position M
[11] = molecular target: B2; test: peptide elution from NbALFA^ST resin; tag position N

Binder	t1/2 [1] [h]	t1/2 [10] [h]	also measured
B1	> 1.67		
B2			binding result (ALFA^PE-FLAG-Vimentin): binds; binding result (ALFA^ST-FLAG-Vimentin [2]): binds; binding result [3]: binds; fold lower detection limit against all other epitope tags [4]: ~10 fold; binding result (PpiD [5]): no binding; binding result (YfgM (non-tagged) [6]): no binding
B3			binding result (ALFA^ST-FLAG-Vimentin [7]): binds
B4			binding result (PpiD [8]): no binding; binding result (YfgM (non-tagged) [9]): no binding
B5		> 1.67	
B6	> 1.67		
B7			t1/2 [11]: > 1.67 h
B8		> 1.67	
B9	> 1.67		
B10	> 1.67		
B11	> 1.67		
B12			t1/2 [11]: > 1.67 h
B13		> 1.67	
B14		> 1.67	
B15		> 1.67	
B16	> 1.67		
B17	> 1.67		
B18		> 1.67	
B19		> 1.67	
B20		> 1.67	
B21		> 1.67	
B22	> 1.67		
B23		> 1.67	
B24		> 1.67	
B25		> 1.67	
B26		> 1.67	
B27		> 1.67	
B28	> 1.67		
B29			t1/2 [11]: < 0.0333 h
